Reference: US20220002427A1, “BISPECIFIC ANTIBODY AGAINST BCMA AND CD3 AND AN IMMUNOLOGICAL DRUG FOR COMBINED USE IN TREATING MULTIPLE MYELOMA” (ENGMAB SARL, priority 2016, published 2022)

Legend:
huBCMA on HEK cells = molecular target: T1, huBCMA on HEK cells (Homo sapiens, UniProt Q02223); assay: Binding of IgG variants on HEK-huBCMA cells (flow cytometry)
T1 construct: expressed in transfected cells; host or cells: HEK cells (HEK-huBCMA)
T1 sequence (Q02223 1-184): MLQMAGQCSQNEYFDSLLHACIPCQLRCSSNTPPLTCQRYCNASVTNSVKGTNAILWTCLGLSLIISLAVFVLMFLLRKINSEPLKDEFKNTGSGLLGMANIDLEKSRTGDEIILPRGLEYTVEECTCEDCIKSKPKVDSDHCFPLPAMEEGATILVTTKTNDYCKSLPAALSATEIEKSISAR
From the text: FIGS. 18A-18B. FIG. 18A: Binding affinity of BCMA antibodies on HEK-huBCMA cells as measured by flow cytometry. The anti-BCMA antibodies were used as first antibody then a secondary PE-labeled anti-human Fc was used as detection antibody. […] FIG. 18B: Binding affinity of BCMA antibodies on HEK-huBCMA cells as measured by flow cytometry. The anti-BCMA antibodies were used as first antibody then a secondary PE-labeled anti-human Fc was used as detection antibody.
Due to their experience the inventors selected out of these 70 clones further 27 clones based on their binding properties to huBCMA, cynoBCMA, murineBCMA, and ratio, measured in different assays. Out of these clones 4VH and 9VL clones were selected, which results in […]. Binding affinity on HEK-huBCMA cells was measured (FIG. 18 and Table 2E). […] However Mab21, Mab 22, Mab27, Mab33, Mab39, and Mab42 were selected due to their overall properties, like affinity for huBCMA, cynoBCMA, binding as bispecific antibody to BCMA-positive multiple myeloma cell lines H929, L363 and RPMI-8226 by flow cytometry, killing potency of myeloma cells H929, L363 and RPMI-8226, of viable myeloma plasma cells from patient bone marrow aspirates, and pharmacokinetics (PK)) and pharmacodynamics (killing of BCMA positive cells) data in cynomolgus monkeys.

huBCMA Fc(kih) = molecular target: T2, huBCMA Fc(kih) (Homo sapiens, UniProt Q02223); assay: Biacore T200 SPR, anti-BCMA antibodies to recombinant human BCMA Fc(kih); format: binding; conditions: analyte huBCMA Fc(kih), 1:1 Langmuir, 25° C.
T2 construct: The extracellular domains of human and cynomolgus BCMA comprised methionine 4 to asparagine 53, and methionine 4 to asparagine 52, respectively; made in house; host or cells: HEK EBNA cells
T2 sequence (Q02223 4-53): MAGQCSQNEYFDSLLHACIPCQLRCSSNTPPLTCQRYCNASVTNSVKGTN
Method: (§1) Assessment of binding of anti-BCMA antibodies to recombinant BCMA by surface plasmon resonance (SPR) as follow. All SPR experiments were performed on a Biacore T200 at 25° C. with HBS-EP as running buffer (0.01 M HEPES pH 7.4, 0.15 M NaCl, 3 mM EDTA, 0.005% Surfactant P20, Biacore, Freiburg/Germany). The avidity of the interaction between anti-BCMA antibodies and recombinant BCMA Fc(kih) (human and cynomolgus) was determined. Biotinylated recombinant human and cynomolgus BCMA Fc(kih) were directly coupled on a SA chip following instructions (Biacore, Freiburg/Germany). The immobilization level ranged from 200 to 700 RU. The anti-BCMA antibodies were passed at a 2-fold concentration range (1.95 to 500 nM) with a flow of 30 μL/minutes through the flow cells over 120 seconds. The dissociation was monitored for 180 seconds. Bulk refractive index differences were corrected for by subtracting the response obtained on the reference flow cell. Here, the anti-BCMA antibodies were flown over an empty surface previously activated and deactivated as described in the standard amine coupling kit. Apparent kinetic constants were derived using the Biacore T200 Evaluation Software (vAA, Biacore AB, Uppsala/Sweden), to fit rate equations for 1:1 Langmuir binding by numerical integration, despite the bivalency of the interaction for comparison purposes. The affinity of the interaction between anti-BCMA antibodies and recombinant human BCMA Fc(kih) was also determined. Anti-human Fab antibody (GE Healthcare) was directly coupled on a CMS chip at pH 5.0 using the standard amine coupling kit (Biacore, Freiburg/Germany). The immobilization level was about 6500 RU. Anti-BCMA antibody was captured for 90 seconds at 25 nM. Recombinant human BCMA Fc(kih) was passed at a 4-fold concentration range (1.95 to 500 nM) with a flow of 30 μL/minutes through the flow cells over 120 seconds. The dissociation was monitored for 120 seconds. Bulk refractive index differences were corrected for by subtracting the response obtained on reference flow cell. Here, recombinant BCMA was flown over a surface with immobilized anti-human Fab antibody but on which HBS-EP has been injected rather than anti-BCMA antibody. Kinetic constants were derived using the Biacore T100 Evaluation Software (vAA, Biacore AB, Uppsala/Sweden), to fit rate equations for 1:1 Langmuir binding by numerical integration (Table 4).

cynoBCMA Fc(kih) = assay: Biacore T200 SPR, anti-BCMA antibodies to recombinant cynomolgus BCMA Fc(kih); cyno/hu affinity gap; format: binding; conditions: analyte cynoBCMA Fc(kih), 1:1 Langmuir, 25° C.
Method: as §1, with “Here, recombinant BCMA was flown over a surface with immobilized anti-human Fab antibody but on which HBS-EP has been injected rather than anti-BCMA antibody.” left out
Based on the affinity values described in Example 2, the affinity of anti-BCMA antibodies to human BCMA vs. cynomolgus BCMA were compared and cyno/hu affinity ratio (gap) values were calculated (Table 5). Affinity cyno/hu gap was calculated as affinity of antibody to cynomolgus BCMA divided by affinity to human BCMA and means that BCMA antibody binds to human BCMA with x fold binding affinity than to cynomolgus BCMA, where x=cyno/hu gap value.

B1: Mab 21: anti-BCMA antibody, VH SEQ ID NO:10, VL SEQ ID NO:12 (antibody, V domains shown)
VH: EVQLLESGGGLVQPGGSLRLSCAASGFTFSDNAMGWVRQAPGKGLEWVSAISGPGSSTYYADSVKGRFTISRDNSKNTLYLQMNSLRAEDTAVYYCAKVLGWFDYWGQGTLVTVSS
VL: EIVLTQSPGTLSLSPGERATLSCRASQSVSEYYLAWYQQKPGQAPRLLIEHASTRATGIPDRFSGSGSGTDFTLTISRLEPEDFAVYYCQQYGYPPDFTFGQGTKVEIK
modifications: Variable region VH; Variable region VL
binding to huBCMA on HEK cells compared with Mab 83A10 (huBCMA on HEK cells): not significantly better
Koff (huBCMA Fc(kih)): 4.39e-05 s⁻¹
Kon (huBCMA Fc(kih)): 851000 M⁻¹ s⁻¹
Koff (cynoBCMA Fc(kih)): 0.000235 s⁻¹
Kon (cynoBCMA Fc(kih)): 491000 M⁻¹ s⁻¹

B2: Mab 39: anti-BCMA antibody, VH SEQ ID NO:40, VL SEQ ID NO:12 (antibody, V domains shown)
VH: EVQLLESGGGLVQPGGSLRLSCAASGFTFTQNAMGWVRQAPGKGLEWVSAISPTGFSTYYADSVKGRFTISRDNSKNTLYLQMNSLRAEDTAVYYCAKVLGWFDYWGQGTLVTVSS
VL: EIVLTQSPGTLSLSPGERATLSCRASQSVSEYYLAWYQQKPGQAPRLLIEHASTRATGIPDRFSGSGSGTDFTLTISRLEPEDFAVYYCQQYGYPPDFTFGQGTKVEIK
modifications: Mab39 VH; Variable region VL
binding to huBCMA on HEK cells compared with Mab 83A10 (huBCMA on HEK cells): not significantly better
Koff (huBCMA Fc(kih)): 5.58e-05 s⁻¹
Kon (huBCMA Fc(kih)): 361000 M⁻¹ s⁻¹
Koff (cynoBCMA Fc(kih)): 0.000467 s⁻¹
Kon (cynoBCMA Fc(kih)): 215000 M⁻¹ s⁻¹

B3: Mab 27: anti-BCMA antibody, VH SEQ ID NO:38, VL SEQ ID NO:12 (antibody, V domains shown)
VH: EVQLLESGGGLVQPGGSLRLSCAASGFTFSSAPMGWVRQAPGKGLEWVSAISYIGHTYYADSVKGRFTISRDNSKNTLYLQMNSLRAEDTAVYYCAKVLGWFDYWGQGTLVTVSS
VL: EIVLTQSPGTLSLSPGERATLSCRASQSVSEYYLAWYQQKPGQAPRLLIEHASTRATGIPDRFSGSGSGTDFTLTISRLEPEDFAVYYCQQYGYPPDFTFGQGTKVEIK
modifications: Mab27 VH; Variable region VL
binding to huBCMA on HEK cells compared with Mab 83A10 (huBCMA on HEK cells): not significantly better
Koff (huBCMA Fc(kih)): 5.93e-05 s⁻¹
Kon (huBCMA Fc(kih)): 359000 M⁻¹ s⁻¹
Koff (cynoBCMA Fc(kih)): 0.000455 s⁻¹
Kon (cynoBCMA Fc(kih)): 216000 M⁻¹ s⁻¹

B4: Mab 42: anti-BCMA antibody, VH SEQ ID NO:10, VL SEQ ID NO:14 (antibody, V domains shown)
VH: EVQLLESGGGLVQPGGSLRLSCAASGFTFSDNAMGWVRQAPGKGLEWVSAISGPGSSTYYADSVKGRFTISRDNSKNTLYLQMNSLRAEDTAVYYCAKVLGWFDYWGQGTLVTVSS
VL: EIVLTQSPGTLSLSPGERATLSCRASQSVSDEYLSWYQQKPGQAPRLLIHSASTRATGIPDRFSGSGSGTDFTLAISRLEPEDFAVYYCQQYGYPPDFTFGQGTKVEIK
modifications: Variable region VH; Variable region VL Mab42
binding to huBCMA on HEK cells compared with Mab 83A10 (huBCMA on HEK cells): not significantly better
Koff (huBCMA Fc(kih)): 0.000298 s⁻¹
Kon (huBCMA Fc(kih)): 803000 M⁻¹ s⁻¹
Koff (cynoBCMA Fc(kih)): 0.000453 s⁻¹
Kon (cynoBCMA Fc(kih)): 707000 M⁻¹ s⁻¹

B5: Mab 33: anti-BCMA antibody, VH SEQ ID NO:39, VL SEQ ID NO:12 (antibody, V domains shown)
VH: EVQLLESGGGLVQPGGSLRLSCAASGFTFYTNAMGWVRQAPGKGLEWVSAINRFGGSTYYADSVKGRFTISRDNSKNTLYLQMNSLRAEDTAVYYCAKVLGWFDYWGQGTLVTVSS
VL: EIVLTQSPGTLSLSPGERATLSCRASQSVSEYYLAWYQQKPGQAPRLLIEHASTRATGIPDRFSGSGSGTDFTLTISRLEPEDFAVYYCQQYGYPPDFTFGQGTKVEIK
modifications: Mab33 VH; Variable region VL
Koff (huBCMA Fc(kih)): 3.55e-05 s⁻¹
Kon (huBCMA Fc(kih)): 200000 M⁻¹ s⁻¹
Koff (cynoBCMA Fc(kih)): 9.76e-05 s⁻¹
Kon (cynoBCMA Fc(kih)): 132000 M⁻¹ s⁻¹

B6: Mab 22: anti-BCMA antibody, VH SEQ ID NO:10, VL SEQ ID NO:13 (antibody, V domains shown)
VH: EVQLLESGGGLVQPGGSLRLSCAASGFTFSDNAMGWVRQAPGKGLEWVSAISGPGSSTYYADSVKGRFTISRDNSKNTLYLQMNSLRAEDTAVYYCAKVLGWFDYWGQGTLVTVSS
VL: EIVLTQSPGTLSLSPGERATLSCRASQSVSSYYLAWYQQKPGQAPRLLISGAGSRATGIPDRFSGSGSGTDFTLTISRLEPEDFAVYYCQQYGYPPDFTFGQGTKVEIK
modifications: Variable region VH; Variable region VL Mab22
binding to huBCMA on HEK cells compared with Mab 83A10 (huBCMA on HEK cells): not significantly better
Koff (huBCMA Fc(kih)): 5.15e-05 s⁻¹
Kon (huBCMA Fc(kih)): 814000 M⁻¹ s⁻¹
Koff (cynoBCMA Fc(kih)): 0.000442 s⁻¹
Kon (cynoBCMA Fc(kih)): 454000 M⁻¹ s⁻¹
